Our source for the Kd values is patent publication US6183967.

Common to all, as to test: FP filter
Data set [1] concerns TZ05 DNA polymerase (Thermus species Z05). As to conditions: 55C.
Data set [2] addresses Taq DNA polymerase (Thermus aquaticus) (UniProt P19821).
The target of data set [3] is Tth DNA polymerase (Thermus thermophilus) (UniProt P52028).
Sequence of Tth DNA polymerase (Thermus thermophilus) (P52028 whole entry): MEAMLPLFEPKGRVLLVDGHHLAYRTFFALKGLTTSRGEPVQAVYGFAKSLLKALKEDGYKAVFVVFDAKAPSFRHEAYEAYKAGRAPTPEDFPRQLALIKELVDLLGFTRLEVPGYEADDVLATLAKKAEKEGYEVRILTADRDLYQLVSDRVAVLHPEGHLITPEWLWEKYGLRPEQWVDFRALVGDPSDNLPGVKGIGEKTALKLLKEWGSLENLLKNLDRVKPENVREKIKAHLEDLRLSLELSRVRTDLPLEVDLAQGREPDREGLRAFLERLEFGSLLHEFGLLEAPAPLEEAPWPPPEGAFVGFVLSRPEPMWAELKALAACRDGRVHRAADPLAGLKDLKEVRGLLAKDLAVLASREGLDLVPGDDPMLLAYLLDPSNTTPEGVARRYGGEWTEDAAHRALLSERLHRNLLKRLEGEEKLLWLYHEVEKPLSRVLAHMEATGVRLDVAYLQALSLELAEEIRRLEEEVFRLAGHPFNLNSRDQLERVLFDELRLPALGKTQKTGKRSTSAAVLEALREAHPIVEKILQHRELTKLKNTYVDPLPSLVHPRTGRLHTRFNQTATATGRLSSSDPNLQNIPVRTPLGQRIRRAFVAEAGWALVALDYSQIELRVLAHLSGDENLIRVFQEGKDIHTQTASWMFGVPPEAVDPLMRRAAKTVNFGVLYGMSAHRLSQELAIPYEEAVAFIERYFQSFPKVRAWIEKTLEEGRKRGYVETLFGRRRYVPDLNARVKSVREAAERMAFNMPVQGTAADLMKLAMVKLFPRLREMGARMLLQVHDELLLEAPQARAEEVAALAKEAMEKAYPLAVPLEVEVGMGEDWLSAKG

Sequence of Taq DNA polymerase (Thermus aquaticus) (P19821 whole entry): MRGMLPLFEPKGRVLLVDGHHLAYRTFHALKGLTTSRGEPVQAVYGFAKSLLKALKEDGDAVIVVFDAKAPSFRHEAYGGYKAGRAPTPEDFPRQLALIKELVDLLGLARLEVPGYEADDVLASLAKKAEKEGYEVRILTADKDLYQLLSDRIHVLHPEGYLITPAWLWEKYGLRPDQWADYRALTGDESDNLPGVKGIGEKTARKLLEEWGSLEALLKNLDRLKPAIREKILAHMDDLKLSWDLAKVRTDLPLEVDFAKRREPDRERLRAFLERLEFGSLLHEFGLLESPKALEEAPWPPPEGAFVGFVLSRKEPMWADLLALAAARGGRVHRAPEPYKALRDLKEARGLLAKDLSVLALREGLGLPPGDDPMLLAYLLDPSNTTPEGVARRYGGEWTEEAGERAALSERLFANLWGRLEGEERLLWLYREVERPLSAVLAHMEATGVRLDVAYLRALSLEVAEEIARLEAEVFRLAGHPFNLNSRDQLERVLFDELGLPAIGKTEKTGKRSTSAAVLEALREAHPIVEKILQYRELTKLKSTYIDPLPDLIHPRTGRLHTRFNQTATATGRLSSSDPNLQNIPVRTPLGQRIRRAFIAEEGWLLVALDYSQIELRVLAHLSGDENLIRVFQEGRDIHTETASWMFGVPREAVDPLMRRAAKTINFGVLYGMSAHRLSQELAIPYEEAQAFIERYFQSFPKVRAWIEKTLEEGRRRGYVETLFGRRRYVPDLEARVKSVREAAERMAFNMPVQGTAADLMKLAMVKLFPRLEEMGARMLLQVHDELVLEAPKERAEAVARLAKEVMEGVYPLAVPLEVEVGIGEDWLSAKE

Usually Kd stands for the concentration at which binding is half-saturated. A high value points to lower affinity. As for “TTCTCGGTTGGTCTCTGGCGGAGCACACCGGGGGGGCTGCGGGCAAGGCGGGTGTCTTGTGTATGATTCGCTTTTCCC [TZ1]”, the Kd in data set [1] (IT50 52.5C) came to 16 pM.

The sequence “TTCTCGGTTGGTCTCTGGCGGAGCACGGGAGGGTGTGGAGTGGGTGGCGCGGGCTCTTGTGTATGATTCGCTTTTCCC [TZ36]” showed a Kd in data set [1] (IT50 51C) of 20 pM.

With “TTCTCGGTTGGTCTCTGGCGGAGCACGTCGGGGGGGCCCTGGGGACGGGCAGGCGTCTTGTGTATGATTCGCTTTTCCC [TZ26]”, the Kd in data set [1] (printed as >>500, IT50 41C) is above 500 pM.

“TTCTCGGTTGGTCTCTGGCGGAGCACGTCGGGGGGGCGTTGGGACGGGCAGACGTCTTGTGTATGATTCGCTTTTCCC [TZ13]”: in data set [1] (IT50 58.5C), the Kd came to 17 pM.

“TTCTCGGTTGGTCTCTGGCGGAGCATACACGACGTCATTCTAGCGTTTTGACGTCTTGTGTATGATTCGCTTTTCCC [ligand 22 (TQH22) / TZ3]” registered a Kd in data set [1] (as TZ3, IT50 52C) of 9 pM.

In data set [1] (IT50 46C), “TTCTCGGTTGGTCTCTGGCGGAGCGAACATACGAAGACATTCCAACGTTTTGTCTTGTGTATGATTCGCTTTTCCC [TZ69]” showed a Kd of 20 pM.

“TTCTCGGTTGGTCTCTGGCGGAGCGAAGCATACGAAGACATTCCAACGTTTTGTCTTGTGTATGATTCGCTTTTCCC [TZ8]”: the Kd in data set [1] (IT50 52C) is 5 pM.

In turn, “TTCTCGGTTGGTCTCTGGCGGAGCGAAGCATACGAAGACATTCCAACGTTTTGTCTTGTGTATGATTCGCTTTTCCC [TZ54]” registered a Kd in data set [1] (IT50 52C) of 23 pM.

Sequence “TTCTCGGTTGGTCTCTGGCGGAGCGCGAGGGTGTGGCGTGGGTGGCGCGATCTTGTGTATGATTCGCTTTTCCC [TZ2]” displayed a Kd in data set [1] (printed as >>1000, IT50 <<35C) above 1000 pM.

Consider “TTCTCGGTTGGTCTCTGGCGGAGCGGATCAGACACGAGACATTGCGGACTTTTGTCTTGTGTATGATTCGCTTTTCCC [TZ9]”, for which, in data set [1] (IT50 52C), the Kd is 5 pM.

With “TTCTCGGTTGGTCTCTGGCGGAGCNNNNNNNNNNNNNNNNNNNNNNNNNNNNNNTCTTGTGTATGATTCGCTTTTCCC [enriched Taq pool round 12]”, the Kd in data set [2] (Taq binding buffer, room temp) is 3500 pM; in data set [3] (cross binding, room temp) it was 200 pM.

For “TTCTCGGTTGGTCTCTGGCGGAGCNNNNNNNNNNNNNNNNNNNNNNNNNNNNNNTCTTGTGTATGATTCGCTTTTCCC [enriched Tth pool round 10]”, the equilibrium dissociation constant (Kd) in data set [2] (cross binding, saturates at about 50%) is 300 pM; in data set [3] (Tth binding buffer, room temp), 5000 pM.

“TTCTCGGTTGGTCTCTGGCGGAGCNNNNNNNNNNNNNNNNNNNNNNNNNNNNNNTCTTGTGTATGATTCGCTTTTCCC [random ssDNA pool]” showed a Kd in data set [3] (50 mM Bicine pH 8.3, 90 mM KCl, 3.5 mM Mn(OAc)2, room temp) of 70000 pM.
